Measured values: patent US20250002588A1 (DIAGONAL THERAPEUTICS, published 2025)

How the values were obtained:
[1] = target: ALK-1/BMPR-2 receptor pair of the PathHunter U2Os dimerization cells (DiscoverX 93-0962C3) (UniProt P37023 22-503; Q13873 27-1038); test: cell-based or functional assay
[2] = target: human ALK1 protein (Sino Biological, #10066-H08H) (human, UniProt P37023 22-118); test: ELISA, coated human ALK1
Method: (§1) These binders were then tested using an ELISA assay. High binding plates (Corning, 9018) were coated with either 2 μg/ml of human BMPRII protein (Sino Biological, #10551-H08H) or 2 μg/ml of human ALK1 protein (Sino Biological, #10066-H08H) overnight at 4C. The plates were then washed three times with wash buffer (R&D Systems, WA126). […] The plates were then washed three times with wash buffer and DGL antibodies or controls, which were diluted with PBS and 0.1% BSA. The antibodies were incubated for one hour at room temperature and then the plates were washed three times with wash buffer. The plates were then incubated with mouse anti-human IgG Fc secondary—HRP (diluted with PBS/0.1% BSA); 100 ul per well at 2 μg/ml and incubated at room temperature for one hour. The plate was washed three times in wash buffer and then 100 ul TMB (R&D Systems, DY9998B, substrate reagent pack). After the wells turn blue, 50 ul of stop solution (R&D Systems, DY994) was added to each well and the absorbance of the plate was read at 450 nm. results can be found in Table 8.

[3] = target: T1, human BMPRII protein (Sino Biological, #10551-H08H) (human, UniProt Q13873 27-150); test: ELISA, coated human BMPRII
T1 sequence (looked up): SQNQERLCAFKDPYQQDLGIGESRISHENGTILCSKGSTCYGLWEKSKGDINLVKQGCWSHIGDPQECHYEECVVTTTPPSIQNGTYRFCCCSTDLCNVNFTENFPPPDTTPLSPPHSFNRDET
Method: as §1

human ALK1 protein (Sino Biological, #10066-H08H), sequence (P37023 22-118 limits assumed): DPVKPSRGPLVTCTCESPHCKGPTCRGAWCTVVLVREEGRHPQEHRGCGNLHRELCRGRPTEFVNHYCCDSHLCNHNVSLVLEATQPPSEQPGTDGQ
ALK-1/BMPR-2 receptor pair of the PathHunter U2Os dimerization cells (DiscoverX 93-0962C3), sequence (P37023 22-503, one chain of several): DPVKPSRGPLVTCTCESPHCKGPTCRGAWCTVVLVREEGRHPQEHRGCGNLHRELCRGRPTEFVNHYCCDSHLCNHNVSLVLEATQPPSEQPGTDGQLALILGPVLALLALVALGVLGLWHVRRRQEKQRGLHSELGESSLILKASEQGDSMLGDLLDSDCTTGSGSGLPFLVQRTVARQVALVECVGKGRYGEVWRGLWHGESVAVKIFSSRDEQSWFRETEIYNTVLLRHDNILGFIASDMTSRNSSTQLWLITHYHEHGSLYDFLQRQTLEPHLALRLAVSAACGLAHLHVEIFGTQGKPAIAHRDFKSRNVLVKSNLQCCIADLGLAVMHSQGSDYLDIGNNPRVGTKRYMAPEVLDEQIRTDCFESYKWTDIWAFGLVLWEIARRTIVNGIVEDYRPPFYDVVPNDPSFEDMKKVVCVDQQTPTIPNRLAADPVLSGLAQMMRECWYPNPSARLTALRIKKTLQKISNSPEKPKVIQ

Binder | % Emax BMP9 [1] [%] | Emax (RLU) [1] [RLU] | Abs450 1 nM [2] | Abs450 10 nM [2] | Abs450 100 nM [2] | Abs450 1 nM [3] | Abs450 10 nM [3] | Abs450 100 nM [3]
DGL633 (bispecific antibody) chain 1: not shown chain 2: EVQLLESGGGLVQPGGSLRLSCAASGFTFSNAWMNWVRQAPGKGLEWVSSISSSSSYIYYADSVKGRFTISRDNSKNTLYLQMNSLRAEDTAVYYCARAVAAGGMFWGLDQWGQGTLVTVTSSGGGGSGGGGSGGGGSQSVLTQPPSASGTPGQRVTISCSGSRSNIGSNSVHWYQQLPGTAPKLLIYGNSNRPSGVPDRFSGSKSGTSASLAISGLRSEDEADYYCQSYDSSLNDHVVFGGGTKLTVLDKTHTCPPCPAPEAAGAPSVFLFPPKPKDTLMISRTPEVTCVVVDVSHEDPEVKFNWYVDGVEVHNAKTKPREEQYNSTYRVVSVLTVLHQDWLNGKEYKCKVSNKALPAPIEKTISKAKGQPREPQVCTLPPSRDELTKNQVSLSCAVKGFYPSDIAVEWESNGQPENNYKTTPPVLDSDGSFFLVSKLTVDKSRWQQGNVFSCSVMHEALHNHYTQKSLSLSPGWSHPQFEK | 32 | 586000 | 0.15 | 0.78 | 1.42 | 0.12 | 0.14 | 0.37
DGL634 (bispecific antibody) chain 1: not shown chain 2: EVQLLESGGGLVQPGGSLRLSCAASGFTFSNAWMNWVRQAPGKGLEWVSSISSSSSYIYYADSVKGRFTISRDNSKNTLYLQMNSLRAEDTAVYYCARAVAAGGMFWGLDQWGQGTLVTVTSSGGGGSGGGGSGGGGSQSVLTQPPSASGTPGQRVTISCSGSRSNIGSNSVHWYQQLPGTAPKLLIYGNSNRPSGVPDRFSGSKSGTSASLAISGLRSEDEADYYCQSYDSSLNDHVVFGGGTKLTVLDKTHTCPPCPAPEAAGAPSVFLFPPKPKDTLMISRTPEVTCVVVDVSHEDPEVKFNWYVDGVEVHNAKTKPREEQYNSTYRVVSVLTVLHQDWLNGKEYKCKVSNKALPAPIEKTISKAKGQPREPQVCTLPPSRDELTKNQVSLSCAVKGFYPSDIAVEWESNGQPENNYKTTPPVLDSDGSFFLVSKLTVDKSRWQQGNVFSCSVMHEALHNHYTQKSLSLSPGWSHPQFEK | 16 | 288000 | – | – | – | 0.12 | 0.19 | 0.4
DGL627 (bispecific antibody) chain 1: not shown chain 2: EVQLLESGGGLVQPGGSLRLSCAASGFTFSDYYMTWIRQAPGKGLEWVSSISGGSTYYADSRKGRFTISRDNSENTLYLQMNSLRAEDTAVYYCARDFGVAGWFGQYGMDVWGQGTLVTVSSGGGGSGGGGSGGGGSQSVLTQPPSASGTPGQRVTISCTGSSSNIGAGYDVHWYQQLPGTAPKLLIYRSNQRPSGVPDRFSGSKSGTSASLAISGLRSEDEADYYCSSYAGNYNLVFGGGTKLTVLDKTHTCPPCPAPEAAGAPSVFLFPPKPKDTLMISRTPEVTCVVVDVSHEDPEVKFNWYVDGVEVHNAKTKPREEQYNSTYRVVSVLTVLHQDWLNGKEYKCKVSNKALPAPIEKTISKAKGQPREPQVCTLPPSRDELTKNQVSLSCAVKGFYPSDIAVEWESNGQPENNYKTTPPVLDSDGSFFLVSKLTVDKSRWQQGNVFSCSVMHEALHNHYTQKSLSLSPGWSHPQFEK | 14 | 502000 | 0.05 | 0.07 | 0.07 | 0.15 | 0.22 | 0.66
DGL635 (bispecific antibody) chain 1: EVQLLESGGGLVQPGGSLRLSCAASGFTFSDYYMTWIRQAPGKGLEWVSSISGGSTYYADSRKGRFTISRDNSENTLYLQMNSLRAEDTAVYYCARDFGVAGWFGQYGMDVWGQGTLVTVSSGGGGSGGGGSGGGGSQSVLTQPPSASGTPGQRVTISCTGSSSNIGAGYDVHWYQQLPGTAPKLLIYRSNQRPSGVPDRFSGSKSGTSASLAISGLRSEDEADYYCSSYAGNYNLVFGGGTKLTVLDKTHTCPPCPAPEAAGAPSVFLFPPKPKDTLMISRTPEVTCVVVDVSHEDPEVKFNWYVDGVEVHNAKTKPREEQYNSTYRVVSVLTVLHQDWLNGKEYKCKVSNKALPAPIEKTISKAKGQPREPQVCTLPPSRDELTKNQVSLSCAVKGFYPSDIAVEWESNGQPENNYKTTPPVLDSDGSFFLVSKLTVDKSRWQQGNVFSCSVMHEALHNHYTQKSLSLSPGWSHPQFEK chain 2: not shown | 141 | 2.61e+06 | 0.09 | 0.29 | 1.17 | 0.15 | 0.33 | 1.17
DGL628 (bispecific antibody) chain 1: not shown chain 2: EVQLLESGGGLVQPGGSLRLSCAASGFTFSDYYMTWIRQAPGKGLEWVSSISGGSTYYADSRKGRFTISRDNSENTLYLQMNSLRAEDTAVYYCARDFGVAGWFGQYGMDVWGQGTLVTVSSGGGGSGGGGSGGGGSQSVLTQPPSASGTPGQRVTISCTGSSSNIGAGYDVHWYQQLPGTAPKLLIYRSNQRPSGVPDRFSGSKSGTSASLAISGLRSEDEADYYCSSYAGNYNLVFGGGTKLTVLDKTHTCPPCPAPEAAGAPSVFLFPPKPKDTLMISRTPEVTCVVVDVSHEDPEVKFNWYVDGVEVHNAKTKPREEQYNSTYRVVSVLTVLHQDWLNGKEYKCKVSNKALPAPIEKTISKAKGQPREPQVCTLPPSRDELTKNQVSLSCAVKGFYPSDIAVEWESNGQPENNYKTTPPVLDSDGSFFLVSKLTVDKSRWQQGNVFSCSVMHEALHNHYTQKSLSLSPGWSHPQFEK | 24 | 884000 | 0.05 | 0.12 | 0.52 | 0.17 | 0.27 | 0.8
DGL629 (bispecific antibody) chain 1: not shown chain 2: EVQLLESGGGLVQPGGSLRLSCAASGFTFSDYYMTWIRQAPGKGLEWVSSISGGSTYYADSRKGRFTISRDNSENTLYLQMNSLRAEDTAVYYCARDFGVAGWFGQYGMDVWGQGTLVTVSSGGGGSGGGGSGGGGSQSVLTQPPSASGTPGQRVTISCTGSSSNIGAGYDVHWYQQLPGTAPKLLIYRSNQRPSGVPDRFSGSKSGTSASLAISGLRSEDEADYYCSSYAGNYNLVFGGGTKLTVLDKTHTCPPCPAPEAAGAPSVFLFPPKPKDTLMISRTPEVTCVVVDVSHEDPEVKFNWYVDGVEVHNAKTKPREEQYNSTYRVVSVLTVLHQDWLNGKEYKCKVSNKALPAPIEKTISKAKGQPREPQVCTLPPSRDELTKNQVSLSCAVKGFYPSDIAVEWESNGQPENNYKTTPPVLDSDGSFFLVSKLTVDKSRWQQGNVFSCSVMHEALHNHYTQKSLSLSPGWSHPQFEK | 12 | 424000 | 0.08 | 0.08 | 0.08 | 0.18 | 0.29 | 0.9
DGL626 (bispecific antibody) chain 1: not shown chain 2: EVQLLESGGGLVQPGGSLRLSCAASGFTFSDYYMTWIRQAPGKGLEWVSSISGGSTYYADSRKGRFTISRDNSENTLYLQMNSLRAEDTAVYYCARDFGVAGWFGQYGMDVWGQGTLVTVSSGGGGSGGGGSGGGGSQSVLTQPPSASGTPGQRVTISCTGSSSNIGAGYDVHWYQQLPGTAPKLLIYRSNQRPSGVPDRFSGSKSGTSASLAISGLRSEDEADYYCSSYAGNYNLVFGGGTKLTVLDKTHTCPPCPAPEAAGAPSVFLFPPKPKDTLMISRTPEVTCVVVDVSHEDPEVKFNWYVDGVEVHNAKTKPREEQYNSTYRVVSVLTVLHQDWLNGKEYKCKVSNKALPAPIEKTISKAKGQPREPQVCTLPPSRDELTKNQVSLSCAVKGFYPSDIAVEWESNGQPENNYKTTPPVLDSDGSFFLVSKLTVDKSRWQQGNVFSCSVMHEALHNHYTQKSLSLSPGWSHPQFEK | 7 | 258000 | 0.06 | 0.07 | 0.06 | 0.17 | 0.25 | 0.71
DGL625 (bispecific antibody) chain 1: not shown chain 2: EVQLLESGGGLVQPGGSLRLSCAASGFTFSDYYMTWIRQAPGKGLEWVSSISGGSTYYADSRKGRFTISRDNSENTLYLQMNSLRAEDTAVYYCARDFGVAGWFGQYGMDVWGQGTLVTVSSGGGGSGGGGSGGGGSQSVLTQPPSASGTPGQRVTISCTGSSSNIGAGYDVHWYQQLPGTAPKLLIYRSNQRPSGVPDRFSGSKSGTSASLAISGLRSEDEADYYCSSYAGNYNLVFGGGTKLTVLDKTHTCPPCPAPEAAGAPSVFLFPPKPKDTLMISRTPEVTCVVVDVSHEDPEVKFNWYVDGVEVHNAKTKPREEQYNSTYRVVSVLTVLHQDWLNGKEYKCKVSNKALPAPIEKTISKAKGQPREPQVCTLPPSRDELTKNQVSLSCAVKGFYPSDIAVEWESNGQPENNYKTTPPVLDSDGSFFLVSKLTVDKSRWQQGNVFSCSVMHEALHNHYTQKSLSLSPGWSHPQFEK | 17 | 615000 | 0.07 | 0.07 | 0.11 | 0.17 | 0.35 | 1.21
